Measured values: IntAct's records for PubMed 16864798

Target: plk1_human PLK1 (UniProt P53350)
Sequence (P53350 whole entry): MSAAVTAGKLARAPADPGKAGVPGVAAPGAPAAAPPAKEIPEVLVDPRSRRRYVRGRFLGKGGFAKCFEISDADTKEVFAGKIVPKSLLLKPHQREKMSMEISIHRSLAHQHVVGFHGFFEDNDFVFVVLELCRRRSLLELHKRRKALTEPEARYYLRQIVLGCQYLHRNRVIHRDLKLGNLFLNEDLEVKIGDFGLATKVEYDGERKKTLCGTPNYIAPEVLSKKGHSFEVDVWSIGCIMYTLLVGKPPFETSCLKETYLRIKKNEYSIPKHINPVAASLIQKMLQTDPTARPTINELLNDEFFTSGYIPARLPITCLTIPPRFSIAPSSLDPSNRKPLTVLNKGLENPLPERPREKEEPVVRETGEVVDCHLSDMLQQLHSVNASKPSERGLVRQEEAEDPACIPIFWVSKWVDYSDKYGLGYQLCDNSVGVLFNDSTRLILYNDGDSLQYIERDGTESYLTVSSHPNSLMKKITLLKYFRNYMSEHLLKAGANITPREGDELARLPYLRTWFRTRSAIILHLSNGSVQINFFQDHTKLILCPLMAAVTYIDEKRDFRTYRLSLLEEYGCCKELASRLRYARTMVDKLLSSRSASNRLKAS

RecQ-like DNA helicase BLM (Homo sapiens), P54132 S144A;S304A;S1290A;S1296A
effect of a mutation on the interaction: disrupting interaction strength
